From the supplement of paper PMC9112550, “Optimization of the antimicrobial peptide Bac7 by deep mutational scanning” (BMC Biology, 2022) come the findings set out here.

The data set concerns Escherichia coli TOP10. In words: shrunken log2 fold change of peptide-encoding DNA abundance (4.5 h post-induction vs induction); higher = less antimicrobial activity (less host growth inhibition). To be noted: time post-induction: 4.5 h; library: site-saturation at positions 5, 18, 19, 20.
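Note: peptides expressed intracellularly from a pBAD plasmid library in pooled LB shake-flask culture, induced with 0.3% L-arabinose, DNA abundance read by NGS, three biological replicates, DESeq2 with apeglm shrinkage.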

For the sequence RRIRVRPPRLPRPRPRPEIRPRP, the “shrunken log2 fold change” value was 0.173. As for RRIRKRPPRLPRPRPRPANQPRP, the “shrunken log2 fold change” value was 0.239. For the sequence RRIRSRPPRLPRPRPRPELRPRP, the “shrunken log2 fold change” value was found to be 0.382. As for RRIRSRPPRLPRPRPRPWNYPRP, the “shrunken log2 fold change” value was determined as 0.0149. The value for RRIRWRPPRLPRPRPRPCTVPRP was -0.438; that for RRIRYRPPRLPRPRPRPIYYPRP was -0.461. The value for RRIRKRPPRLPRPRPRPLKIPRP was 2.15; that for RRIRGRPPRLPRPRPRPCHGPRP was -0.355; that for RRIRMRPPRLPRPRPRPMLWPRP was 0.19. With RRIRTRPPRLPRPRPRPSIQPRP, the “shrunken log2 fold change” value was -0.865. Take RRIRGRPPRLPRPRPRPWNAPRP: the “shrunken log2 fold change” value came to 0.109. Regarding RRIRYRPPRLPRPRPRPKCTPRP, the “shrunken log2 fold change” value was -0.0162. Then RRIRNRPPRLPRPRPRPYQAPRP, with 0.036.

With RRIRSRPPRLPRPRPRPQKNPRP, the “shrunken log2 fold change” value is -0.247. As to RRIRSRPPRLPRPRPRPTATPRP, the “shrunken log2 fold change” value was found to be 0.703.

For RRIRGRPPRLPRPRPRPIVDPRP, the “shrunken log2 fold change” value worked out at 0.0357. Then RRIRNRPPRLPRPRPRPHISPRP, with -0.0617; and RRIRLRPPRLPRPRPRPTATPRP, with 0.817; and RRIRWRPPRLPRPRPRPPRYPRP, with 0.374. Turning to RRIRWRPPRLPRPRPRPAQWPRP, the “shrunken log2 fold change” value amounted to 0.287.

For RRIRGRPPRLPRPRPRPLAVPRP, the “shrunken log2 fold change” value came to 0.809. Turning to RRIRVRPPRLPRPRPRPYRLPRP, the “shrunken log2 fold change” value stood at 0.0399. As for RRIRQRPPRLPRPRPRPPPFPRP, the “shrunken log2 fold change” value was found to be 0.259. For RRIRGRPPRLPRPRPRPSRVPRP, the “shrunken log2 fold change” value was 0.61. In the case of RRIRSRPPRLPRPRPRPKPKPRP, the “shrunken log2 fold change” value was 0.545. Then RRIRCRPPRLPRPRPRPETGPRP, with -0.0271; and RRIRKRPPRLPRPRPRPAPCPRP, with 0.432; and RRIRNRPPRLPRPRPRPQYKPRP, with -0.876. With RRIRLRPPRLPRPRPRPGYHPRP, the “shrunken log2 fold change” value is -0.421.

Regarding RRIRCRPPRLPRPRPRPEYVPRP, the “shrunken log2 fold change” value was -0.244. The value for RRIRPRPPRLPRPRPRPFEQPRP was -0.281; that for RRIRYRPPRLPRPRPRPTAMPRP was 0.133; that for RRIRKRPPRLPRPRPRPIRHPRP was 0.132.

RRIRWRPPRLPRPRPRPWFCPRP: the “shrunken log2 fold change” value is -0.0932. As for RRIRQRPPRLPRPRPRPVFEPRP, the “shrunken log2 fold change” value came out at 0.0624.

Regarding RRIRQRPPRLPRPRPRPDMGPRP, the “shrunken log2 fold change” value amounted to 0.0191. Consider RRIRERPPRLPRPRPRPNDCPRP, for which the “shrunken log2 fold change” value is -0.0231. Consider RRIRGRPPRLPRPRPRPHRDPRP, for which the “shrunken log2 fold change” value came to 0.0592. Turning to RRIRIRPPRLPRPRPRPITTPRP, the “shrunken log2 fold change” value is -0.338. Take RRIRARPPRLPRPRPRPDIQPRP: the “shrunken log2 fold change” value is -0.149. As to RRIRPRPPRLPRPRPRPCPGPRP, the “shrunken log2 fold change” value is -0.0306. With RRIRHRPPRLPRPRPRPTMCPRP, the “shrunken log2 fold change” value is -0.00396.

RRIRLRPPRLPRPRPRPIRHPRP: the “shrunken log2 fold change” value is -0.144. For RRIRARPPRLPRPRPRPECIPRP, the “shrunken log2 fold change” value is 0.781. Consider RRIRNRPPRLPRPRPRPRCGPRP, for which the “shrunken log2 fold change” value was found to be 0.0586. Regarding RRIRRRPPRLPRPRPRPYMQPRP, the “shrunken log2 fold change” value was -0.264. Regarding RRIRRRPPRLPRPRPRPGVHPRP, the “shrunken log2 fold change” value was -0.178. RRIRIRPPRLPRPRPRPEAIPRP: the “shrunken log2 fold change” value is -0.0271.

For RRIRERPPRLPRPRPRPSNLPRP, the “shrunken log2 fold change” value is -0.302.

As for RRIRPRPPRLPRPRPRPFIWPRP, the “shrunken log2 fold change” value was -0.271. As to RRIRKRPPRLPRPRPRPRWNPRP, the “shrunken log2 fold change” value came out at 0.323.

RRIRKRPPRLPRPRPRPGTIPRP: the “shrunken log2 fold change” value is -0.0588.

Consider RRIRDRPPRLPRPRPRPHMEPRP, for which the “shrunken log2 fold change” value was 0.198. For the sequence RRIRKRPPRLPRPRPRPETKPRP, the “shrunken log2 fold change” value stood at 0.106. Take RRIRTRPPRLPRPRPRPQPLPRP: the “shrunken log2 fold change” value was 0.284. For the sequence RRIRERPPRLPRPRPRPTFLPRP, the “shrunken log2 fold change” value was -0.724.

For RRIRARPPRLPRPRPRPQLFPRP, the “shrunken log2 fold change” value stood at 0.18. RRIRWRPPRLPRPRPRPDIHPRP: the “shrunken log2 fold change” value was -0.196.

RRIRVRPPRLPRPRPRPAMDPRP: the “shrunken log2 fold change” value turned out to be 0.21. Take RRIRKRPPRLPRPRPRPLHVPRP: the “shrunken log2 fold change” value was 0.0446.

Turning to RRIRWRPPRLPRPRPRPSYAPRP, the “shrunken log2 fold change” value was found to be 0.0124. Then RRIRARPPRLPRPRPRPVAPPRP, with 0.612.

For RRIRHRPPRLPRPRPRPAFQPRP, the “shrunken log2 fold change” value is -0.0477. As for RRIRHRPPRLPRPRPRPLCTPRP, the “shrunken log2 fold change” value was -0.247. Turning to RRIRERPPRLPRPRPRPPGAPRP, the “shrunken log2 fold change” value amounted to 0.573. The value for RRIRARPPRLPRPRPRPIVQPRP was 0.0602; that for RRIRWRPPRLPRPRPRPHCQPRP was -0.102; that for RRIRSRPPRLPRPRPRPITQPRP was -0.0534. As to RRIRLRPPRLPRPRPRPHQCPRP, the “shrunken log2 fold change” value was 0.0182.

In the case of RRIRYRPPRLPRPRPRPQNMPRP, the “shrunken log2 fold change” value was -1.33. Regarding RRIRHRPPRLPRPRPRPRVFPRP, the “shrunken log2 fold change” value turned out to be 0.201. Take RRIRWRPPRLPRPRPRPRLFPRP: the “shrunken log2 fold change” value stood at 0.432. Consider RRIRRRPPRLPRPRPRPLALPRP, for which the “shrunken log2 fold change” value was 0.396. RRIRARPPRLPRPRPRPGGHPRP: the “shrunken log2 fold change” value turned out to be 0.115. RRIRDRPPRLPRPRPRPQIVPRP: the “shrunken log2 fold change” value was -0.00245. The value for RRIRSRPPRLPRPRPRPYYQPRP was -0.608; that for RRIRVRPPRLPRPRPRPAWKPRP was 0.106; that for RRIRKRPPRLPRPRPRPTMQPRP was 0.626.

As to RRIRDRPPRLPRPRPRPSGHPRP, the “shrunken log2 fold change” value stood at 1.17.

Regarding RRIRTRPPRLPRPRPRPPMTPRP, the “shrunken log2 fold change” value came out at 0.172. Then RRIRIRPPRLPRPRPRPAGKPRP, with 0.0304. On to RRIRSRPPRLPRPRPRPEVHPRP, for which the “shrunken log2 fold change” value came out at 0.0346. As for RRIRKRPPRLPRPRPRPHDKPRP, the “shrunken log2 fold change” value turned out to be 0.176. RRIRWRPPRLPRPRPRPVSVPRP: the “shrunken log2 fold change” value is -0.258.

Take RRIRDRPPRLPRPRPRPKVEPRP: the “shrunken log2 fold change” value came to 0.109. The value for RRIRDRPPRLPRPRPRPLHLPRP was -0.0348; that for RRIRYRPPRLPRPRPRPASWPRP was 0.299; that for RRIRERPPRLPRPRPRPHKEPRP was -0.189. Then RRIRIRPPRLPRPRPRPIVAPRP, with -0.119; and RRIRVRPPRLPRPRPRPVHTPRP, with -0.0364; and RRIRHRPPRLPRPRPRPHTNPRP, with -0.672.

For the sequence RRIRKRPPRLPRPRPRPFIYPRP, the “shrunken log2 fold change” value is -0.144.

For the sequence RRIRERPPRLPRPRPRPDFRPRP, the “shrunken log2 fold change” value was -0.0858. As for RRIRERPPRLPRPRPRPHAMPRP, the “shrunken log2 fold change” value amounted to 0.0454. Turning to RRIRFRPPRLPRPRPRPFTRPRP, the “shrunken log2 fold change” value was found to be 0.0083. For RRIRYRPPRLPRPRPRPDKCPRP, the “shrunken log2 fold change” value is -0.107.

Regarding RRIRVRPPRLPRPRPRPIRFPRP, the “shrunken log2 fold change” value was -0.0571.

RRIRQRPPRLPRPRPRPEINPRP: the “shrunken log2 fold change” value was -0.15. Then RRIRTRPPRLPRPRPRPAVDPRP, with -0.209. On to RRIRHRPPRLPRPRPRPKYYPRP, for which the “shrunken log2 fold change” value came to 0.046.

On to RRIRMRPPRLPRPRPRPWPRPRP, for which the “shrunken log2 fold change” value came out at 1.25. Consider RRIRERPPRLPRPRPRPCSVPRP, for which the “shrunken log2 fold change” value is -0.0625. In the case of RRIRLRPPRLPRPRPRPIRIPRP, the “shrunken log2 fold change” value is -0.379. Then RRIRQRPPRLPRPRPRPMISPRP, with -0.0269. On to RRIRLRPPRLPRPRPRPNQLPRP, for which the “shrunken log2 fold change” value was -0.407. As for RRIRGRPPRLPRPRPRPIWKPRP, the “shrunken log2 fold change” value is 0.155. On to RRIRARPPRLPRPRPRPEAHPRP, for which the “shrunken log2 fold change” value was determined as 0.0341.

Turning to RRIRERPPRLPRPRPRPHYEPRP, the “shrunken log2 fold change” value was -0.231. Then RRIRRRPPRLPRPRPRPPMLPRP, with 0.317. Take RRIRQRPPRLPRPRPRPCAQPRP: the “shrunken log2 fold change” value was found to be 0.308. As to RRIRFRPPRLPRPRPRPFDMPRP, the “shrunken log2 fold change” value is -0.294.

For RRIRFRPPRLPRPRPRPSNEPRP, the “shrunken log2 fold change” value was -0.378. As for RRIRARPPRLPRPRPRPHSCPRP, the “shrunken log2 fold change” value is 0.0724.

In the case of RRIRWRPPRLPRPRPRPELGPRP, the “shrunken log2 fold change” value was -0.0384. Then RRIRYRPPRLPRPRPRPWHLPRP, with -0.0873. Consider RRIRDRPPRLPRPRPRPVYKPRP, for which the “shrunken log2 fold change” value was -0.601. In the case of RRIRIRPPRLPRPRPRPMWHPRP, the “shrunken log2 fold change” value was -0.176. Consider RRIRYRPPRLPRPRPRPNFMPRP, for which the “shrunken log2 fold change” value is -0.821. RRIRNRPPRLPRPRPRPRGDPRP: the “shrunken log2 fold change” value was determined as 0.131. With RRIRERPPRLPRPRPRPAIMPRP, the “shrunken log2 fold change” value is -0.299. Regarding RRIRARPPRLPRPRPRPFWQPRP, the “shrunken log2 fold change” value came out at 0.0762. With RRIRLRPPRLPRPRPRPMKCPRP, the “shrunken log2 fold change” value worked out at 0.131. Consider RRIRQRPPRLPRPRPRPMDEPRP, for which the “shrunken log2 fold change” value is 0.0268. The value for RRIRNRPPRLPRPRPRPIKMPRP was -0.404. In the case of RRIRKRPPRLPRPRPRPQQCPRP, the “shrunken log2 fold change” value is -0.371.
